This data set has as its system K4 kissing-loop RNA reporter. The data set is described as follows: apparent KD of K4 kissing-loop reporter; higher = weaker reporter binding. The following applies: Eterna round: R107. The procedure:
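RNA-MaP round R107: designed RNA switches with theophylline, tryptophan, arginine or FMN aptamers are transcribed on-chip within common flanks. They are titrated with a labelled K4 kissing-loop RNA reporter in RNA-MaP buffer (100 mM Tris pH 7.5, 80 mM KCl, 4 mM MgCl2), without ligand or with the indicated ligand. Median apparent KD per design.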

The mark [1] stands for this setting: input ligand: theophylline 20 uM.
Setting [2] is: input ligand: tryptophan 2.4 mM.
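Also: bound reporter read as fluorescence of individual clusters on recovered sequencing chips by microscopy, with normalized cluster intensities fitted with a binding model.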

As to “UGAUACCAGACGGCCGCCACUCCCGUAAGUCAAAGACUUACGAAGAGAGUUUUCCAGUGAUGUUGGAGGACCGGGUCUGGUAUCU [FiskerMod 15 - Jieux - Exclusion - Tryptophan B]”, the “apparent KD of K4 kissing-loop reporter” value reads like this: (input ligand: FMN 200 uM) 186 nM; (input ligand: arginine 13.2 mM) 168 nM; (input ligand: none) 175 nM; under setting [1], 174 nM; under setting [2], 232 nM.
On the same counts, the results for “UGAUACCAGACGGCCGCCACUCCUGCAGUCAAAGACUGCUAAGGAAUAUUCGUCCAGUGAUGUUGGAGGACCGGGUCUGGUAUCU [TrypBX 12 #SwitchBubble #Palindromic #StaticStem]” are 1370 nM, 991 nM, 1380 nM, 896 nM and 979 nM.
On the same counts, the results for “UGAUACCAGACGGCCGCCACUGCACCAGUCAAUGACUGAGCGCGGUGGCGCUCAGUGAUGUUGAGCAGGACCGGGUCUGGUAUCU [Mod of Eli's TrypBX 8 v4]” are 147 nM, 117 nM, 136 nM, 145 nM and 93.9 nM.
As for “UGAUACCAGACGGCCGCCACUGGUGCAGUCAAAGACUGCUAAAACCAAAUCGUGGAGUGAUGUUCCAGGACCGGGUCUGGUAUCU [TrypBX 20 #SwitchBubble #Palindromic #StaticStem]”, the “apparent KD of K4 kissing-loop reporter” value amounted to 451 nM (input ligand: FMN 200 uM); 423 nM (input ligand: arginine 13.2 mM); 452 nM (input ligand: none); 462 nM under setting [1]; 674 nM under setting [2].
For “UGAUACCAGACGGCCGCCACUUCCGUAAGUCAAAGACUUACCAAGGGAAUCGUCCAGUGAUGUUGGAGGACCGGGUCUGGUAUCU [FiskerMod 6 - Jieux - Exclusion - Tryptophan B]”, in that order: 960 nM, 744 nM, 1260 nM, 959 nM and 788 nM.
For “UGAUACCAGACGGCCGCCACUUCUGCAAGUCAAAGACUUGCUAAAGGAAUCGUCCAGUGAUGUUGGAGGACCGGGUCUGGUAUCU [FiskerMod 1 - Jieux - Exclusion - Tryptophan B]”, in that order: 1020 nM, 823 nM, 1170 nM, 638 nM and 772 nM.
For “UGAUACCAGACUGAUACCAGCAAGUGAUGUUUGUUGAUCUAAAGCAGUCAAAGACUGCCUUGCCCUUGGCAGCAGUCUGGUAUCU [TheoBX 27 #SwitchBubble #StaticStem]”, in that order: 886 nM, 569 nM, 832 nM, 354 nM and 901 nM.
Regarding “UGAUACCAGACUGAUACCAGCCACAGAGUCAAAGACUCUGAUAAAGGAACCAGUGAUGUUGGCCCUUGGCAGCAGUCUGGUAUCU [TheoBX 24 #SwitchBubble #StaticStem]”, the “apparent KD of K4 kissing-loop reporter” value is, setting by setting: (input ligand: FMN 200 uM) 131 nM; (input ligand: arginine 13.2 mM) 113 nM; (input ligand: none) 118 nM; under setting [1], 107 nM; under setting [2], 156 nM.
On the same counts, the results for “UGAUACCAGACUGAUACCAGCCAGUGAUGUUGGCUAAUCCGAGAAGGAGUCAAAGACUCCGGCCCUUGGCAGCAGUCUGGUAUCU [TheoBX 4 #SwitchBubble #StaticStem]” are 133 nM, 117 nM, 133 nM, 128 nM and 121 nM.
On the same counts, the results for “UGAUACCAGACUGAUACCAGCGAGUGAUGUUUGCUGAUCUAAAGCAGUCAAAGACUGCCUUGCCCUUGGCAGCAGUCUGGUAUCU [TheoBX 26 #SwitchBubble #StaticStem]” are 294 nM, 235 nM, 275 nM, 351 nM and 264 nM.
For “UGAUAGGACAGAAGGAGCGGAAGUGAUGUUUCCAAAAGGCUAAGGUGUCAAAAGACACCCUUCCAGGUAGGUCGCUGUCCUAUCU”, in that order: 237 nM, 274 nM, 221 nM, 260 nM and 203 nM.
On to “UGAUAGGACAGAAGGAGCGGAGCUGGUCAAAGACCAGCAAUACGUUAAAUAGGAGUGAUGUUCCAGGUAGGUCGCUGUCCUAUCU [ArgBX 28 #SwitchBubble #StaticStem]”, for which the “apparent KD of K4 kissing-loop reporter” value was 131 nM (input ligand: FMN 200 uM); 121 nM (input ligand: arginine 13.2 mM); 121 nM (input ligand: none); 101 nM under setting [1]; 87.9 nM under setting [2].
“UGAUAGGACAGAAGGAGCGGCAGUGAUGUUGCCAAAAGGAUAAGGUGUCAAAAGACACCCUGCCAGGUAGGUCGCUGUCCUAUCU”: the “apparent KD of K4 kissing-loop reporter” value (input ligand: FMN 200 uM) amounted to 179 nM; the “apparent KD of K4 kissing-loop reporter” value (input ligand: arginine 13.2 mM) stood at 366 nM; the “apparent KD of K4 kissing-loop reporter” value (input ligand: none) was 259 nM; the “apparent KD of K4 kissing-loop reporter” value under setting [1] came out at 298 nM; the “apparent KD of K4 kissing-loop reporter” value under setting [2] amounted to 208 nM.
For “UGAUAGGACAGAAGGAGCGGUAGUGAUGUUACCAAAAGUAUAAGGUGUCAAAAGACACCCUACCAGGUAGGUCGCUGUCCUAUCU”, in that order: 292 nM, 295 nM, 367 nM, 506 nM and 286 nM.
For “UGAUAGGACAGAAGGAGCGGUAGUGAUGUUGCCAAAAGAAUAAGGUGUCAAAAGACACCCUGCCAGGUAGGUCGCUGUCCUAUCU”, in that order: 139 nM, 189 nM, 144 nM, 188 nM and 120 nM.
On the same counts, the results for “UGAUAGGAGAGAAGGAGCGGGAGUGAUGUUCCCAAAGAUUGGUCUAGCAAAGCUGGACCCUCCCAGGUAGGUCGCUCUCCUAUCU [KL-XARG-B16]” are 382 nM, 419 nM, 434 nM, 405 nM and 357 nM.
Regarding “UGAUGUUUAGGUCACCCAGUGAUGUUGGAAGGAGCGUGCGAAAGCACAGGUAGGUCGCCAAUCUCCUUGUGACCUGAGCAUCUAA [#SwitchBubble 14 #K4Early]”, the “apparent KD of K4 kissing-loop reporter” value is, setting by setting: (input ligand: FMN 200 uM) 976 nM; (input ligand: arginine 13.2 mM) 787 nM; (input ligand: none) 1050 nM; under setting [1], 979 nM; under setting [2], 854 nM.

These data come from the supplement of paper PMC9170038.
